In assay [1] the target is T1, human FcγRI extracellular domain (human, UniProt P12314 16-292).
T1 construct: extracellular domain; also called CD64
Put plainly: SPR at 25 C, antibody captured on Protein A, FcγR ECD analyte. Here is the method: (§1) Biacore® T100 instrument and Biacore® 3000 (GE Healthcare, Piscataway, NJ), Biacore® reagents and Scrubber2 Biacore® Evaluation Software (Biologics 2008) are used for the SPR analysis of antibody binding. A CM5 chip (Biacore® P/N BR-1006-68) is prepared using the manufacturer's EDC/NHS amine coupling method (Biacore® P/N BR-1000-50). Briefly, the surfaces of all 4 FCs are activated by injecting a 1:1 mixture of EDC/NHS for 7 minutes at 10 μL/minute. Protein A (Calbiochem P/N 539202) is diluted to 100 μg/mL in 10 mM acetate, pH 4.5 buffer and immobilized for approximately 400 RU onto all 4 flow cells by 7 minute injection at a flow rate of 10 μL/minute. Un-reacted sites are blocked with a 7-minute injection of ethanolamine at 10 μL/minute. Injections of 2×10 μL of glycine pH 1.5 are used to remove any non-covalently associated protein.
Reference-subtracted data is collected as FC2-FC1, FC3-FC1, and FC4-FC1. The measurements are obtained at 25° C. The affinity (KD) is calculated using either steady state equilibrium analysis with the Scrubber 2 Biacore® Evaluation Software or a “1:1 (Langmuir) binding” model in BIA Evaluation.

Assay [2] addresses T2, human FcγRIIIA_158V extracellular domain (human, UniProt P08637 17-208).
T2 construct: extracellular domain; Allotype with Val at 158 (numbering as in the label); also called CD16a
Nature of the assay: SPR at 25 C, antibody captured on Protein A, FcγR ECD analyte, steady state. Here is the method: as §1
(§2) For FcγRIIa, FcγRIIb, and FcγRIIIa binding, antibodies are diluted to […] in running buffer, and approximately 500 RU of each variant is captured in flow cells 2 through 4 (RUcaptured). FC1 is the reference flow cell. Fcγ receptor ECDs are diluted to 10 μM in running buffer and then 2 fold serially diluted in running buffer to 39 nM. Duplicate injections of each concentration are injected over all FCs at 40 μL/minute for 60 seconds followed by a 120 second dissociation phase. Regeneration is performed by injecting 15 μL of 10 mM glycine pH 1.5 at 30 μL/min over all FCs.
(§3) Reference-subtracted data is collected as FC2-FC1, FC3-FC1, and FC4-FC1. The measurements are obtained at 25° C. The affinity (KD) is calculated using the steady state equilibrium analysis with the Scrubber 2 Biacore® Evaluation Software.

The target of assay [3] is T3, human FcγRIIA_131H extracellular domain (human, UniProt P12318 34-217).
T3 construct: extracellular domain; also called CD32a
T3 sequence (looked up): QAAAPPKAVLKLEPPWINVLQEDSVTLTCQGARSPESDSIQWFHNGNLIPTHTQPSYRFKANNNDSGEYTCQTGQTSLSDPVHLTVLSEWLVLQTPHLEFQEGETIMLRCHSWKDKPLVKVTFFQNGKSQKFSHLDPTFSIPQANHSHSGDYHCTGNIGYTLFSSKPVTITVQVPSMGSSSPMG
The assay is described as above. Here is the method: as §1, §2, §3

In assay [4] the target is T4, human FcγRIIA_131R extracellular domain (human, UniProt P12318 34-217).
T4 construct: extracellular domain; also called CD32a
T4 sequence (looked up): T3 sequence (looked up) with H134R
Described as above. Here is the method:
as §1, §2, §3

In assay [5] the target is T5, human FcγRIIb extracellular domain (human, UniProt P31994 43-217).
T5 construct: extracellular domain; also called CD32b
T5 sequence (looked up): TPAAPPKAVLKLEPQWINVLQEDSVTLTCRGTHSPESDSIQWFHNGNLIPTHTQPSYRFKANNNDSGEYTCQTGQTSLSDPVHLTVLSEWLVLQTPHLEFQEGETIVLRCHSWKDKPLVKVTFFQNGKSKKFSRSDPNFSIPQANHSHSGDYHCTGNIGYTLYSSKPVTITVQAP
The assay is described as above. Here is the method: as §1, §2, §3

The target in assay [6] is T6, human CD200R expressed on cells (human, UniProt Q8TD46 25-348).
T6 chain: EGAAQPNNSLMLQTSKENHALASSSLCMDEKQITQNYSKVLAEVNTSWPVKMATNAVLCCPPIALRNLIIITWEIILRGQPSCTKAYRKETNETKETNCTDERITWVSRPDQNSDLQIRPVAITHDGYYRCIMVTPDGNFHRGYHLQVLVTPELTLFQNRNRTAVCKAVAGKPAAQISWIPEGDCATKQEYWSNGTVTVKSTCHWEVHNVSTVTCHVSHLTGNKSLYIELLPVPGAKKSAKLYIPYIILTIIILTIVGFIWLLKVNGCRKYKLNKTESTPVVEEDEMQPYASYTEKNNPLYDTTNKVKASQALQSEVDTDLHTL
Nature of the assay: cell-based or functional assay.

Assay [7] concerns the target T7, human CD200R (purified soluble receptor, SPR analyte) (human, UniProt Q8TD46 29-265, limits assumed).
T7 construct: Purified by IMAC and size exclusion chromatography; also called hCD200R; human CD200 receptor
T7 chain: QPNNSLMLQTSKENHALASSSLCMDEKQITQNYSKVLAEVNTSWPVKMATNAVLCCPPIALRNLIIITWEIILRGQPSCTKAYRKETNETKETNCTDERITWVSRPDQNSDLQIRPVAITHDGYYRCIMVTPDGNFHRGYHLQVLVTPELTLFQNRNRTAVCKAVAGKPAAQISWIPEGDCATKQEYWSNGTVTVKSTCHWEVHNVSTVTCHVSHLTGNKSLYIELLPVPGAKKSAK
Nature of the assay: SPR at 37 C, antibody captured on Protein A, receptor analyte, 1:1 model; n=3.

Assay [8] deals with T8, cynomolgus monkey CD200R (purified soluble receptor, SPR analyte) (cynomolgus monkey, UniProt Q8TD46 25-265 (human entry)).
T8 construct: Purified by IMAC and size exclusion chromatography; also called cyno CD200R
T8 chain: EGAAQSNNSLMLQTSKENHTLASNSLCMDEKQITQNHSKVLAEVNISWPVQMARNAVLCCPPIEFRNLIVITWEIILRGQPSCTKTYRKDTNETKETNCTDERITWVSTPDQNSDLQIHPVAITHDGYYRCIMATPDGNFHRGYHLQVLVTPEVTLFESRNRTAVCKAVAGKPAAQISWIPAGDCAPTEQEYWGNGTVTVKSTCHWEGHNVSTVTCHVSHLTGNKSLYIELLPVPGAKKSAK
The assay is described as above.

The target of assay [9] is T9, human FcγRIIIA_158F extracellular domain (human, UniProt P08637 17-208).
T9 construct: extracellular domain; Allotype with Phe at 158 (numbering as in the label); also called CD16a
Nature of the assay: SPR at 25 C, antibody captured on Protein A, FcγR ECD analyte, steady state. Here is the method: as §1, §2, §3

One may read the Kd as the equilibrium constant for the complex coming apart.

Residue numbers refer to the chain shown, from its start. In names and notes the source's numbering stands.

T1 sequence (P12314 16-292): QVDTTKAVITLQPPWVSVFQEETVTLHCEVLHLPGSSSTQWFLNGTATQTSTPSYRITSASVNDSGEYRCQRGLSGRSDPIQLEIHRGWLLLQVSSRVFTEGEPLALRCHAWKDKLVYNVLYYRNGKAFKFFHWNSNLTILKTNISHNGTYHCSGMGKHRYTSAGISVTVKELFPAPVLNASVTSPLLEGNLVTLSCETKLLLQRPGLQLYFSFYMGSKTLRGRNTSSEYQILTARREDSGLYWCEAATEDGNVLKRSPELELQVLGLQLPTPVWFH
T2 sequence (P08637 17-208 F176V): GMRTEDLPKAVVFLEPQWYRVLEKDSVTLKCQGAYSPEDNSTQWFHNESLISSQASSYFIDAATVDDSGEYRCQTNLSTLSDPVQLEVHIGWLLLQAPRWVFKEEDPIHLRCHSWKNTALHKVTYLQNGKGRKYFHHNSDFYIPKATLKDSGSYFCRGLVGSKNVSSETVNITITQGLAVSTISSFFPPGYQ
T9 sequence (P08637 17-208): as the sequence (P08637 17-208 F176V) above, with V160F counted along it

B1: Antibody I-4P (antibody, human IgG4 S228P, kappa)
heavy: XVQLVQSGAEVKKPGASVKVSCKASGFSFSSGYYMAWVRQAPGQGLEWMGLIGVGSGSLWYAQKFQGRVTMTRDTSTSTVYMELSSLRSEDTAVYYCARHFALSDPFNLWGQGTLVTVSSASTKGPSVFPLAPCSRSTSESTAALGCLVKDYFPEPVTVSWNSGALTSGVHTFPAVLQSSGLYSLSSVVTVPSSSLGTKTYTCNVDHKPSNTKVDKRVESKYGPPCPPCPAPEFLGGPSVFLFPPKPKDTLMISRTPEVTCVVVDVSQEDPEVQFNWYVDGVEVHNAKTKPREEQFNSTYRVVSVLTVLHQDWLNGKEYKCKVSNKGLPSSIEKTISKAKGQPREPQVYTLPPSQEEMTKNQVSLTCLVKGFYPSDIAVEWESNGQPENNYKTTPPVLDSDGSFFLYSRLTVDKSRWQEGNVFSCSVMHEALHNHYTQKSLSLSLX
light: EIVLTQSPDFQSVTPKEKVTITCQASESIDSYLLWYQQKPDQSPKLLIKQASTLASGVPSRFSGSGSGTDFTLTINSLEAEDAATYYCQNYYDISSNDFGGGTKVEIKRTVAAPSVFIFPPSDEQLKSGTASVVCLLNNFYPREAKVQWKVDNALQSGNSQESVTEQDSKDSTYSLSSTLTLSKADYEKHKVYACEVTHQGLSSPVTKSFNRGEC
modifications: Xaa at position 1 is either glutamine or pyroglutamic acid; Xaa at position 446 is either glycine or absent
notes: Humanized IgG4P (S228P), kappa; also called IgG4SP; Antibody I-4P-AF647 (AF647-labelled form used as stain)
Consider B1, for which the equilibrium dissociation constant (Kd) was determined as 0.369 nM in assay [1]; 4300 nM in [2]; 3900 nM in assay [3]; 1700 nM in assay [4]; 2200 nM in assay [5]; 5.6 nM in assay [7]. For the same molecule, the dissociation constant (Kd) in [8] was 2.3 nM. Moreover, the “IC50 of inhibition of IC-stimulated IL-8 release, human CD200R-expressing U937 cells” value in assay [6] turned out to be 0.07 µg/mL. The “IC50 of inhibition of immune-complex induced IL-8 secretion, U937 cells expressing human CD200R (average of 3 experiments)” value in assay [6] was found to be 0.2 µg/mL.

B2: Antibody I-IgG1 (antibody)
heavy: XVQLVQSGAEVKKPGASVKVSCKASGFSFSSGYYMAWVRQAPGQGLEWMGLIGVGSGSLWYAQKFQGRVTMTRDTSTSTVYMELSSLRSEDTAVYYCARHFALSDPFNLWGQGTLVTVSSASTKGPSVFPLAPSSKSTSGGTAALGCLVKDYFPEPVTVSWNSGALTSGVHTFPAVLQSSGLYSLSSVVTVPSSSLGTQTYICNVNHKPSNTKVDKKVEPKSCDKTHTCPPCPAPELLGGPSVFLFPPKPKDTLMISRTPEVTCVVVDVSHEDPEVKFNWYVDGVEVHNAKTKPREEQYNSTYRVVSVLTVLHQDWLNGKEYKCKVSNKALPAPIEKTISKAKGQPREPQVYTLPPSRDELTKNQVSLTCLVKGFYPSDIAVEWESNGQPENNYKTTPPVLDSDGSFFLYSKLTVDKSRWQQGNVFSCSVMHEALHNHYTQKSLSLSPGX
light: B1 light
modifications: Xaa at position 1 is either glutamine or pyroglutamic acid; Xaa at position 450 is either lysine or absent
notes: Same HCVR, LCVR and LC as Antibody I-4P; IgG1 heavy chain
As to B2, the Kd was 0.0489 nM in assay [1]; 200 nM in [2]; 500 nM in assay [3]; 600 nM in assay [4]; 2800 nM in assay [5]; 900 nM in assay [9].

The values above are taken from US20220251198A1 (Eli Lilly, published 2022).
